Laboratory results: the supplement of paper PMC10567573

B1: APBB1IP (parent)
chain: PPEPLSQVSMWDQRWQDHQPLLPI
B2: LARP4 (parent)
chain: WTVANMEEIKKLTTDPDLILEVLR

Variants of: B1
Assay: protein stability index of a GFP-peptide fusion (GPS, HEK-293T) (PSI 1-6); higher = more stable
Conditions: c terminus: a fixed tail appended
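Also: lentivirally expressed fusions sorted by FACS into six bins by GFP to DsRed ratio, PSI derived from sequencing read proportions per bin multiplied by bin number.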

Which protein stability index does the source give for PPEPLSQVSMWDQRWQDHQPLLKI here?
Its protein stability index is 2.62.

Which protein stability index does the source give for PPEPLSQVSMWDQRWQDHQPLLLI here?
Its protein stability index is 1.99.

Which protein stability index does the source give for PPEPLSQVSMWDQRWQDHQPLLMI here?
The protein stability index was 2.08.

With PPEPLSQVSMWDQRWQDHQPLLNI as the variant, how does the protein stability index read?
Its protein stability index is 3.23.

Which protein stability index does the source give for PPEPLSQVSMWDQRWQDHQPLLQI here?
The protein stability index was 2.39.

Which protein stability index does the source give for PPEPLSQVSMWDQRWQDHQPLLRI here?
Its protein stability index is 2.38.

Which protein stability index does the source give for PPEPLSQVSMWDQRWQDHQPLLSI here?
The protein stability index was 2.05.

With PPEPLSQVSMWDQRWQDHQPLLTI as the variant, how does the protein stability index read?
Its protein stability index is 2.77.

Which protein stability index does the source give for PPEPLSQVSMWDQRWQDHQPLLVI here?
The protein stability index was 2.92.

Which protein stability index does the source give for PPEPLSQVSMWDQRWQDHQPLLWI here?
Its protein stability index is 1.36.

Which protein stability index does the source give for PPEPLSQVSMWDQRWQDHQPLLYI here?
Its protein stability index is 2.06.

For PPEPLSQVSMWDQRWQDHQPLLPA, which protein stability index is on record?
The protein stability index was 3.26.

With PPEPLSQVSMWDQRWQDHQPLLPC as the variant, how does the protein stability index read?
Its protein stability index is 2.69.

Which protein stability index does the source give for PPEPLSQVSMWDQRWQDHQPLLPD here?
Its protein stability index is 4.43.

Which protein stability index does the source give for PPEPLSQVSMWDQRWQDHQPLLPE here?
The protein stability index was 3.26.

With PPEPLSQVSMWDQRWQDHQPLLPF as the variant, how does the protein stability index read?
Its protein stability index is 2.72.

Which protein stability index does the source give for PPEPLSQVSMWDQRWQDHQPLLPG here?
The protein stability index was 4.44.

With PPEPLSQVSMWDQRWQDHQPLLPH as the variant, how does the protein stability index read?
The protein stability index was 3.58.

For PPEPLSQVSMWDQRWQDHQPLLPK, which protein stability index is on record?
Its protein stability index is 3.92.

With PPEPLSQVSMWDQRWQDHQPLLPL as the variant, how does the protein stability index read?
Its protein stability index is 3.26.

With PPEPLSQVSMWDQRWQDHQPLLPM as the variant, how does the protein stability index read?
Its protein stability index is 3.24.

With PPEPLSQVSMWDQRWQDHQPLLPN as the variant, how does the protein stability index read?
Its protein stability index is 3.12.

For PPEPLSQVSMWDQRWQDHQPLLPP, which protein stability index is on record?
The protein stability index was 3.79.

With PPEPLSQVSMWDQRWQDHQPLLPQ as the variant, how does the protein stability index read?
Its protein stability index is 3.93.

Which protein stability index does the source give for PPEPLSQVSMWDQRWQDHQPLLPR here?
The protein stability index was 3.12.

Which protein stability index does the source give for PPEPLSQVSMWDQRWQDHQPLLPS here?
Its protein stability index is 3.55.

For PPEPLSQVSMWDQRWQDHQPLLPT, which protein stability index is on record?
Its protein stability index is 3.62.

For PPEPLSQVSMWDQRWQDHQPLLPV, which protein stability index is on record?
The protein stability index was 3.29.

With PPEPLSQVSMWDQRWQDHQPLLPW as the variant, how does the protein stability index read?
The protein stability index was 2.04.

With PPEPLSQVSMWDQRWQDHQPLLPY as the variant, how does the protein stability index read?
Its protein stability index is 3.54.

Variants of: B2
Assay: as above
Conditions: c terminus: a fixed tail appended

Which protein stability index does the source give for ATVANMEEIKKLTTDPDLILEVLR here?
Its protein stability index is 1.9.

For CTVANMEEIKKLTTDPDLILEVLR, which protein stability index is on record?
Its protein stability index is 1.88.

For DTVANMEEIKKLTTDPDLILEVLR, which protein stability index is on record?
Its protein stability index is 3.04.

For ETVANMEEIKKLTTDPDLILEVLR, which protein stability index is on record?
The protein stability index was 2.75.

Which protein stability index does the source give for FTVANMEEIKKLTTDPDLILEVLR here?
The protein stability index was 2.74.

With GTVANMEEIKKLTTDPDLILEVLR as the variant, how does the protein stability index read?
Its protein stability index is 2.63.

With HTVANMEEIKKLTTDPDLILEVLR as the variant, how does the protein stability index read?
Its protein stability index is 2.55.

For ITVANMEEIKKLTTDPDLILEVLR, which protein stability index is on record?
Its protein stability index is 2.25.

For KTVANMEEIKKLTTDPDLILEVLR, which protein stability index is on record?
Its protein stability index is 2.26.

With LTVANMEEIKKLTTDPDLILEVLR as the variant, how does the protein stability index read?
The protein stability index was 2.14.

With MTVANMEEIKKLTTDPDLILEVLR as the variant, how does the protein stability index read?
The protein stability index was 2.88.

For NTVANMEEIKKLTTDPDLILEVLR, which protein stability index is on record?
Its protein stability index is 2.49.

For PTVANMEEIKKLTTDPDLILEVLR, which protein stability index is on record?
Its protein stability index is 2.71.

For QTVANMEEIKKLTTDPDLILEVLR, which protein stability index is on record?
Its protein stability index is 2.91.

With RTVANMEEIKKLTTDPDLILEVLR as the variant, how does the protein stability index read?
Its protein stability index is 2.45.

Which protein stability index does the source give for STVANMEEIKKLTTDPDLILEVLR here?
Its protein stability index is 2.33.

For TTVANMEEIKKLTTDPDLILEVLR, which protein stability index is on record?
Its protein stability index is 2.32.

With VTVANMEEIKKLTTDPDLILEVLR as the variant, how does the protein stability index read?
The protein stability index was 2.89.

Which protein stability index does the source give for YTVANMEEIKKLTTDPDLILEVLR here?
The protein stability index was 2.01.

With WAVANMEEIKKLTTDPDLILEVLR as the variant, how does the protein stability index read?
The protein stability index was 1.42.

With WCVANMEEIKKLTTDPDLILEVLR as the variant, how does the protein stability index read?
Its protein stability index is 2.02.

Which protein stability index does the source give for WDVANMEEIKKLTTDPDLILEVLR here?
Its protein stability index is 2.12.

For WEVANMEEIKKLTTDPDLILEVLR, which protein stability index is on record?
The protein stability index was 2.8.

Which protein stability index does the source give for WFVANMEEIKKLTTDPDLILEVLR here?
Its protein stability index is 1.94.

For WGVANMEEIKKLTTDPDLILEVLR, which protein stability index is on record?
The protein stability index was 2.28.

With WHVANMEEIKKLTTDPDLILEVLR as the variant, how does the protein stability index read?
Its protein stability index is 2.67.

For WIVANMEEIKKLTTDPDLILEVLR, which protein stability index is on record?
Its protein stability index is 1.14.

For WKVANMEEIKKLTTDPDLILEVLR, which protein stability index is on record?
Its protein stability index is 1.87.

With WLVANMEEIKKLTTDPDLILEVLR as the variant, how does the protein stability index read?
Its protein stability index is 2.08.

For WMVANMEEIKKLTTDPDLILEVLR, which protein stability index is on record?
The protein stability index was 1.48.

With WNVANMEEIKKLTTDPDLILEVLR as the variant, how does the protein stability index read?
Its protein stability index is 2.

Which protein stability index does the source give for WPVANMEEIKKLTTDPDLILEVLR here?
Its protein stability index is 3.13.

Which protein stability index does the source give for WQVANMEEIKKLTTDPDLILEVLR here?
The protein stability index was 1.95.

Which protein stability index does the source give for WRVANMEEIKKLTTDPDLILEVLR here?
The protein stability index was 2.59.

With WSVANMEEIKKLTTDPDLILEVLR as the variant, how does the protein stability index read?
The protein stability index was 2.58.

For WVVANMEEIKKLTTDPDLILEVLR, which protein stability index is on record?
Its protein stability index is 1.7.

With WWVANMEEIKKLTTDPDLILEVLR as the variant, how does the protein stability index read?
Its protein stability index is 2.11.

With WYVANMEEIKKLTTDPDLILEVLR as the variant, how does the protein stability index read?
Its protein stability index is 1.05.

Which protein stability index does the source give for WTAANMEEIKKLTTDPDLILEVLR here?
The protein stability index was 3.11.

Which protein stability index does the source give for WTCANMEEIKKLTTDPDLILEVLR here?
The protein stability index was 2.5.

For WTDANMEEIKKLTTDPDLILEVLR, which protein stability index is on record?
Its protein stability index is 3.05.

For WTEANMEEIKKLTTDPDLILEVLR, which protein stability index is on record?
Its protein stability index is 3.01.

With WTFANMEEIKKLTTDPDLILEVLR as the variant, how does the protein stability index read?
The protein stability index was 2.32.

With WTHANMEEIKKLTTDPDLILEVLR as the variant, how does the protein stability index read?
The protein stability index was 2.5.

For WTIANMEEIKKLTTDPDLILEVLR, which protein stability index is on record?
Its protein stability index is 2.37.

Which protein stability index does the source give for WTKANMEEIKKLTTDPDLILEVLR here?
Its protein stability index is 2.19.

With WTLANMEEIKKLTTDPDLILEVLR as the variant, how does the protein stability index read?
The protein stability index was 2.41.

Which protein stability index does the source give for WTMANMEEIKKLTTDPDLILEVLR here?
The protein stability index was 2.29.

Which protein stability index does the source give for WTNANMEEIKKLTTDPDLILEVLR here?
The protein stability index was 2.24.

With WTPANMEEIKKLTTDPDLILEVLR as the variant, how does the protein stability index read?
Its protein stability index is 1.92.

For WTQANMEEIKKLTTDPDLILEVLR, which protein stability index is on record?
Its protein stability index is 2.62.

Which protein stability index does the source give for WTRANMEEIKKLTTDPDLILEVLR here?
Its protein stability index is 1.24.

For WTSANMEEIKKLTTDPDLILEVLR, which protein stability index is on record?
Its protein stability index is 2.21.

Which protein stability index does the source give for WTTANMEEIKKLTTDPDLILEVLR here?
The protein stability index was 2.18.

For WTYANMEEIKKLTTDPDLILEVLR, which protein stability index is on record?
Its protein stability index is 1.96.

With WTVCNMEEIKKLTTDPDLILEVLR as the variant, how does the protein stability index read?
Its protein stability index is 1.92.

Which protein stability index does the source give for WTVDNMEEIKKLTTDPDLILEVLR here?
Its protein stability index is 3.25.

Which protein stability index does the source give for WTVENMEEIKKLTTDPDLILEVLR here?
The protein stability index was 2.3.

With WTVFNMEEIKKLTTDPDLILEVLR as the variant, how does the protein stability index read?
The protein stability index was 1.69.

Which protein stability index does the source give for WTVGNMEEIKKLTTDPDLILEVLR here?
Its protein stability index is 2.06.

For WTVHNMEEIKKLTTDPDLILEVLR, which protein stability index is on record?
Its protein stability index is 1.93.

With WTVKNMEEIKKLTTDPDLILEVLR as the variant, how does the protein stability index read?
The protein stability index was 2.6.

With WTVLNMEEIKKLTTDPDLILEVLR as the variant, how does the protein stability index read?
Its protein stability index is 1.9.

With WTVMNMEEIKKLTTDPDLILEVLR as the variant, how does the protein stability index read?
The protein stability index was 1.5.
